Laboratory results from article PMC7919418 (Genes & Development, 2021).

B1: Nxf2[541–841], recombinant (domain or fragment)
chain: LPSEYVRAVKEVFPQLTTLDGVDLQTNPGQSLQKNFLCDTGAYELVGAFLENYLREFENDEFRHNLYKYYSENSIFTLTCNYNVVQNHQTPKILQRLSKYNRHARNLRNKDYSKASDGVFFGCTYIVEILLQLPRVTHDFHSLQTDVMHYNGKGAVIYVAGLLRDEPPSTRNGHGSKTDIGGVLLGFSRQFVVTFDEANLGLGKRARRLKIANERLHITNPSKTAIRNAFSVNFPDPSERQAEEDSLDVKDHKLLLFQEVTGLISTWVTSIVEEADWDFERALKLFIQKNADHEIPDLAFA

Tests used:
[1] = target: Ctp expressed in isolation with a His6-SUMO tag (for ITC) (Drosophila melanogaster, UniProt Q24117 1-89); experiment: ITC
[2] = target: Drosophila melanogaster Ctp (residues 1–89), untagged, coexpressed with Panx peptides (Drosophila melanogaster, UniProt Q24117 1-89); experiment: SEC-MALS
SEC-MALS = target: the molecule itself; experiment: SEC-MALS
[3] = target: B1; experiment: SEC-MALS
Nxt1, recombinant = Nxt1, recombinant (Drosophila melanogaster, UniProt Q9V3H8 1-133); experiment: SEC-MALS

Row | Binder | Kd [1] | stoichiometry N [2] | further results
1 | RTATRDAGTQVRLE [Panx peptide residues 467–480 (Panx2)] | ~140 nM | 2 Panx peptides per Ctp homodimer | –
2 | TLYKNAATQTER [Panx peptide residues 455–466 (Panx1)] | ~75 nM | 2 Panx peptides per Ctp homodimer | –
3 | His6-Ctp, recombinant, coexpressed in SFiNX complexes (natural protein) MSDRKAVIKNADMSEEMQQDAVDCATQALEKYNIEKDIAAYIKKEFDKKYNPTWHCIVGRNFGSYVTHETRHFIYFYLGQVAILLFKSG | – | – | stoichiometry N (SEC-MALS): 2
4 | TLYKNAATQTERRTATRDAGTQVRLE [Panx peptide residues 455–480 (Panx1 + 2)] | – | 1 Panx peptide per Ctp homodimer | –
5 | Panx[263–541], recombinant, coexpressed in SFiNX[wild type] (domain or fragment) ASSQNESSKERKLRDTELDYVPVRPDEHFIRPIKFSNLIERRPPQVEFNTVNLSKADKRSLAVARAELVLEQIQQKANKEEPPEFHMVDTICKLPVNESFRNQDCFENPSPICNNMNVVYKFNSTPGTRIDLSKWGLETVPEATKRLLRLLGIDVARLKELQSTVKPSQRILKLKKEQLEQGLAPTEEQETATLYKNAATQTERRTATRDAGTQVRLESKLNGAFWQNPHFDPMNLTQHQSNVMLALQEIYQTLPSATMAVKLSRALAPALAIIKGRQP | – | – | binding result [3]: binds
6 | B1 | – | – | binding result (Nxt1, recombinant): binds
